Drawing on PMC11228396, this text covers stoichiometry N for 1 substance.

The experiment addresses Stabilized soluble Omicron BA.1 spike (SARS-CoV-2). The experiment in a line: cryo-EM structure.

“Stabilized soluble Omicron BA.1 spike (domain or fragment)” displayed a stoichiometry N of 3.
